For orientation: half-life means the time in which the quantity being followed falls by half. Low readings indicate rapid decline, high ones slow decline. A word on the koff: it is the first-order rate constant of dissociation. A high value points to a short-lived complex. The term kon denotes a measure of how fast the partners come together.

This note sets out measurements from patent US11975040B2, “Plexin binding regulator” (The University of Tokyo, priority 2016, dated 2024).

Like-named read-outs stand apart in the source and are kept apart here. Positions of bridges follow the written chain, without caps; N, C: chain ends. Non-standard residues stand in square brackets, D forms with d. Residues, ends and D or L forms follow the SMILES beside them. No end group written: not given here.

Data set [1] in a line: stability test with serum protease. It counts as in vitro ADME. The following applies: degradation by serum protease. The method, then:
A stability test, with serum protease, of the cyclic peptide P6 and the cyclic peptide having an intramolecular lactam bridge structure was performed (FIG. 11c).

Data set [2] has as its target T1, mouse Plexin B1 and Semaphorin 4D (Mus musculus, UniProt Q8CJH3).
T1 sequence (Q8CJH3 20-535 limits assumed): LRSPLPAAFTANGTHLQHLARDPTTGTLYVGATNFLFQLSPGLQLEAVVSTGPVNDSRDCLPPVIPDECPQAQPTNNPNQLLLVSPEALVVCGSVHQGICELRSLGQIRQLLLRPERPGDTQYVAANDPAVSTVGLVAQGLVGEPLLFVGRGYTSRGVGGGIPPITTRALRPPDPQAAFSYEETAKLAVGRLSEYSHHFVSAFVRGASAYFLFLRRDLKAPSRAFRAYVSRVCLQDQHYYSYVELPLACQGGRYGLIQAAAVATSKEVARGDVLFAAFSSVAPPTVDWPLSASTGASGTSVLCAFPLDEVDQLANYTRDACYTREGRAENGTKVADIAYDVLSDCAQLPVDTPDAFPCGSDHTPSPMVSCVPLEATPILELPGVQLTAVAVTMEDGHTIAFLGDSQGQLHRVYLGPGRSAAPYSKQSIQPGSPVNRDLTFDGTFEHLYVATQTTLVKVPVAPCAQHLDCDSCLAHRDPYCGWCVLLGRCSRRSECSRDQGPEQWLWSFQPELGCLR
Description: in vitro pulldown assay of mouse Plexin B1 / Semaphorin 4D interaction (AP activity). Type of data set: biochemical. The following applies: compared with cyclic peptide P6. Here is the method:
The effect of the cyclic peptides shown in FIG. 2c on protein-protein interaction (PPI) of Plexin B1 and Semaphorin 4D was studied by in vitro pulldown assay (FIG. 3). • 1. Plexin B1 or Plexin A2 was immobilized on Sepharose beads. • 2. A cyclic peptide that bound to Plexin B1, a negative control peptide, or dimethylsulfoxide (DMSO) was added to Plexin-B1-immobilized beads. • 3. An alkali phosphatase (AP)-fused protein of Semaphorin 4D or Semaphorin 6A was added. • 4. After washing of the resulting beads, an increase in absorbance of the sample was measured at 405 nm to determined AP activity.
High AP activity relates to high interaction (5) between Semaphorin and Plexin and low AP activity relates to […] interaction (6) between Semaphorin and Plexin.

The subject of data set [3] is Plexin B1. Description: Kd (s^-1). From the text: (§1) Table printed on a drawing sheet, FIG. 2
Head of the field: Kd (s^-1)
(§2) The sequences from top to bottom are SEQ ID NO: 40, SEQ ID NO: 31, SEQ ID NO: 37, SEQ ID NO: 30, SEQ ID NO: 38, and SEQ ID NO: 39.
(§3) First copying reader's note: The sequences are only the variable region of the cyclic scaffold drawn in panel b, DW(Variable region)CS-NH2 closed by a thioether bridge.
(§4) Where the first naming reader finds the target: description_of_the_figure: the respective amino acid sequence of the cyclic peptides and their binding affinity to Plexin B1

Data set [4] has as its target Plexin B1. As to the kind of experiment: KD (nM).
Text: as §1
(§5) Head of the field: KD (nM)
as §2, §3, §4

In data set [5] the test system is Plexin B1. Description: Ka (µM^-1s^-1).
Text: as §1
Head of the field: Ka (µM^-1s^-1)
as §2, §3, §4

Data set [6] has as its system Plexin B1. As to the kind of experiment: kd (ms^-1). From the text:
(§6) Table printed on a drawing sheet, FIG. 13
Head of the field: kd (ms^-1)
(§7) First copying reader's note: Panel b of FIG. 13; panel a is a bar chart and is left out.

Data set [7] concerns Plexin B1. Description: ka (μM^-1s^-1).
Text: as §6
Head of the field: ka (μM^-1s^-1)
as §7

Data set [8] deals with Plexin B1. Description: kd (s^-1). The method, then:
(§8) Table printed on a drawing sheet, FIG. 11
Head of the field: kd (s^-1)
(§9) First copying reader's note: Panel a of FIG. 11; the BC8 row is highlighted with a frame on the sheet.
(§10) Where the first naming reader finds the target: passage: its binding affinity to Plexin B1 was analyzed by surface resonance plasmon (SPR) (FIG. 11a)

The target of data set [9] is Plexin B1. As to the kind of experiment: KD (nM).
Text: as §6, §5, §7
The source holds these as a separate data set.

The target in data set [10] is Plexin B1. Description: KD (nM). The method, then:
as §8, §5, §9, §10
The source holds these as a separate data set.

In data set [11] the target is T2, human Plexin B1 (human, UniProt O43157 20-535, limits assumed).
T2 sequence (looked up): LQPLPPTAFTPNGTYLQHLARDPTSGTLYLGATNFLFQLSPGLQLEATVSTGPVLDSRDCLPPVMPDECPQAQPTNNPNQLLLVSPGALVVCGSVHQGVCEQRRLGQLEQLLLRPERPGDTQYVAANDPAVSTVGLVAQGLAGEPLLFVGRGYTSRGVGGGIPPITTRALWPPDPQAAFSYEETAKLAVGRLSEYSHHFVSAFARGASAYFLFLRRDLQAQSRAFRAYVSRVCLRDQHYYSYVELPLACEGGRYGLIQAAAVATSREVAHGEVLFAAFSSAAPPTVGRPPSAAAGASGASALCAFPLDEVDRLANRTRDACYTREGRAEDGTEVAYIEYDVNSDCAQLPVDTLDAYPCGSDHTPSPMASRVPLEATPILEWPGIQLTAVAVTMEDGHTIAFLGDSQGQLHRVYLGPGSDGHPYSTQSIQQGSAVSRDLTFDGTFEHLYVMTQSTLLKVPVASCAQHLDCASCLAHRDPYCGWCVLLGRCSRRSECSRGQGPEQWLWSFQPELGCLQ
Description: SPR. For orientation: SPR reads the build-up and loss of mass on a sensor chip optically.

A further data set deals with T3, mouse Plexin B1 (mouse, UniProt Q8CJH3 20-535, limits assumed).
T3 sequence (looked up): T1 sequence (Q8CJH3 20-535 limits assumed)
As to the kind of experiment: SPR.

The target of data set [12] is T2, human Plexin B1. As to the kind of experiment: SPR. The source holds these as a separate data set.
The target of data set [13] is T2, human Plexin B1. As to the kind of experiment: SPR. The source holds these as a separate data set.

As for `CC[C@H](C)[C@@H]1NC(=O)[C@H](CCC(N)=O)NC(=O)CNC(=O)[C@H]([C@@H](C)O)NC(=O)[C@H](Cc2c[nH]c3ccccc23)NC(=O)[C@H](CCCNC(=N)N)NC(=O)[C@H](C)NC(=O)[C@H](C(C)C)NC(=O)[C@H](CCCNC(=N)N)NC(=O)[C@@H]2CCCN2C(=O)[C@H](CCCNC(=N)N)NC(=O)[C@@H](Cc2c[nH]c3ccccc23)NC(=O)CSC[C@@H](C(=O)N[C@@H](CO)C(N)=O)NC(=O)[C@H](Cc2ccc(O)cc2)NC(=O)[C@H]([C@@H](C)CC)NC1=O` [P6, wRPRVARWTGQITYC] ({CH2CO}-[dW]RPRVARWTGQIIYCS-NH2; thioether N-15 (inferred); N-terminus and C-terminus assumed), the half-life in [1] is 3 to 6 h.

In the case of `CC(C)[C@@H]1NC(=O)[C@H](Cc2ccc(O)cc2)NC(=O)[C@H](Cc2ccccc2)NC(=O)[C@H]([C@@H](C)O)NC(=O)CNC(=O)[C@H]([C@@H](C)O)NC(=O)[C@H](Cc2c[nH]c3ccccc23)NC(=O)[C@H](CCCNC(=N)N)NC(=O)[C@H](CC(=O)O)NC(=O)[C@H](Cc2ccc(O)cc2)NC(=O)[C@H](Cc2ccccc2)NC(=O)[C@H](Cc2c[nH]c3ccccc23)NC(=O)[C@H](CCCNC(=N)N)NC(=O)[C@@H](Cc2c[nH]c3ccccc23)NC(=O)CSC[C@@H](C(=O)NCC(N)=O)NC1=O` [mp6-2, wRWFYDRWTGTFYVC] ({CH2CO}-[dW]RWFYDRWTGTFYVCG-NH2; thioether N-15), in data set [2], the “interaction inhibiting activity between mouse Plexin B1 and Semaphorin 4D” value is listed as “equivalent to that of the cyclic peptide P6”.

Take AVSNLPPRPHITYIE [P1]: the “Kd” value worked out at 0.014 s⁻¹ in the data set with Plexin B1 [3] and 700 nM on Plexin B1 [4]. Besides, in the data set on Plexin B1 [5], the “Ka” value turned out to be 20000 M⁻¹ s⁻¹.

Turning to NGTLSWQTYSHL [P8], the “Kd” value was 0.037 s⁻¹ in the data set with Plexin B1 [3] and 689 nM on Plexin B1 [4]. The “Ka” value in the data set on Plexin B1 [5] turned out to be 53000 M⁻¹ s⁻¹.

For the molecule “P6dPEG5: dimerized cyclic peptide P6 (FIG. 12b) ({CH2CO}-[dW]RPRVARWTGQIIYCS; thioether N-15; also: dimer: two units joined after S16 by PEG linkers)”, the “kd (ms^-1)” value in the data set on Plexin B1 [6] worked out at 0.447 ms^-1. For the same molecule, the “ka” value in the data set on Plexin B1 [7] was 1.18e+06 M⁻¹ s⁻¹.

With “RPRAARWTGQIIY (not fully specified) [P5]”, the “Kd” value came to 0.002 s⁻¹ in the data set with Plexin B1 [3] and 77.1 nM on Plexin B1 [4]. Besides, in the data set with Plexin B1 [5], the “Ka” value was 21000 M⁻¹ s⁻¹.

For RVRVERWTGKLI (not fully specified) [P3], the “Kd” value in the data set on Plexin B1 [3] worked out at 0.144 s⁻¹; on Plexin B1 [4], 33.7 nM. For the same molecule, the “Ka” value in the data set with Plexin B1 [5] stood at 4.27e+06 M⁻¹ s⁻¹.

For wRPRVARWTGQITYC [P6], the “Kd” value was found to be 0.012 s⁻¹ in the data set with Plexin B1 [3], 3.5 nM on Plexin B1 [4], 3.34 nM on Plexin B1 [9] and 3.81 nM on Plexin B1 [10]. Further, the “kd” value in the data set with Plexin B1 [8] turned out to be 0.0151 s⁻¹. Besides, the “Ka” value in the data set with Plexin B1 [5] was found to be 3.46e+06 M⁻¹ s⁻¹.

Turning to {CH2CO}-[dW]RPRAARWTGQIIYCS (thioether N-15) [SEQ ID NO 37], in the data set with human Plexin B1 [11], the Kd was determined as 77.1 nM, the koff was 0.002 s⁻¹ and the kon amounted to 21000 M⁻¹ s⁻¹.

For {CH2CO}-[dW]RAFIERWTGRLVVCG (thioether N-15) [cyclic peptide mp6-7], the figures for the Kd in the data set with mouse Plexin B1 and in the data set with human Plexin B1 [12] were 126 nM and 4.58 nM, respectively.

Regarding {CH2CO}-[dW]LAYIERWTGQIVRCG (thioether N-15) [cyclic peptide mp6-5], the Kd was 507 nM with mouse Plexin B1 and 174 nM with human Plexin B1 [12].

In the data set with human Plexin B1 [13], {CH2CO}-[dW]RPRVARWTGQIIYCS (thioether N-15; also: dimer, two units joined after S16 by PEG linkers, also called dimerized cyclic peptide P6) [P6dPEG5] displayed a Kd of 0.38 nM and an on-rate constant (kon) of 1.18e+06 M⁻¹ s⁻¹.

In the data set with human Plexin B1 [11], {CH2CO}-[dW]RPRVARWTGQIIYCS (thioether N-15) [SEQ ID NO 30] returned a Kd of 3.5 nM, a koff of 0.012 s⁻¹ and a kon of 3.46e+06 M⁻¹ s⁻¹.

As for {CH2CO}-[dW]NSNVLSWQTYSWYCS (thioether N-15) [SEQ ID NO 38], in the data set with human Plexin B1 [11], the Kd stood at 275 nM, the koff was found to be 0.01 s⁻¹ and the kon was found to be 38000 M⁻¹ s⁻¹.

In the data set with human Plexin B1 [11], {CH2CO}-[dW]NGTLSWQTYSHLCS (thioether N-14) [SEQ ID NO 39] returned a Kd of 689 nM, a koff of 0.037 s⁻¹ and a kon of 53000 M⁻¹ s⁻¹.

In the data set with human Plexin B1 [11], {CH2CO}-[dW]AVSNLPPRPHITYIECS (thioether N-17) [SEQ ID NO 40] yielded a Kd of 700 nM, a koff of 0.014 s⁻¹ and a kon of 20000 M⁻¹ s⁻¹.

Consider {CH2CO}-[dW]RVRVERWTGKLICS (thioether N-14) [SEQ ID NO 31], for which, in the data set with human Plexin B1 [11], the Kd was 33.7 nM, the koff stood at 0.144 s⁻¹ and the kon was found to be 4.27e+06 M⁻¹ s⁻¹.

Take {CH2CO}-[dW]LGYIARWTGTVVKCG (thioether N-15) [cyclic peptide mp6-3]: the Kd worked out at 227 nM with mouse Plexin B1 and 241 nM with human Plexin B1 [12].
